Data on 2 molecules can be found in patent US20050042213A1, “Methods and pharmaceutical compositions for modulating heparanase activation and uses thereof” (InSight Biopharmaceuticals Ltd., priority 2003, published 2005).

The target of the assay is T1, pro-heparanase (H60) (Homo sapiens, UniProt Q9Y251, K307R).
T1 sequence (Q9Y251 36-543 K307R): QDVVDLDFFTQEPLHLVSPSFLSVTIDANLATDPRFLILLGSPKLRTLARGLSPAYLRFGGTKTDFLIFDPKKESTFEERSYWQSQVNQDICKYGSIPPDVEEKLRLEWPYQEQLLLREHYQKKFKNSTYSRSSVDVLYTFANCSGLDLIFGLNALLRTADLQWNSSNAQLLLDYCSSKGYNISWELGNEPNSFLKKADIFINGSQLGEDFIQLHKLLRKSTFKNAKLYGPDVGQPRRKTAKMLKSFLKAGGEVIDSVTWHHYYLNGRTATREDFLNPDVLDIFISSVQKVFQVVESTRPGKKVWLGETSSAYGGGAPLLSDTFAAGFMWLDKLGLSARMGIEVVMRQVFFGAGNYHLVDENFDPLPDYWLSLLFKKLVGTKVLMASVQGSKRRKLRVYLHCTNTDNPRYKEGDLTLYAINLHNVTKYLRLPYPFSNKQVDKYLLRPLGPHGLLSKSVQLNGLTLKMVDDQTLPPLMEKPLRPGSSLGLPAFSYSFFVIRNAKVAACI
The assay can be described thus: Circular dichroism spectrometry of pro-heparanase. Further details: key to a helix / β strand / β turn / Un-ordered: fraction of secondary structure (0-1). To be noted: fraction of secondary structure of H60. On the procedure:
Circular Dichroism spectrometry—Circular Dichroism spectra were recorded using a JASCO 500 spetropolarimeter. Far Ultraviolet measurements (260-200 nm) were performed in a 0.1 mm demountable cuvette at 25° C., scanning at a rate of 10 nm/min. Pro-heparanase was assayed at a concentration of 0.72 mg/ml in 20 mM sodium phosphate buffer pH 6.8 supplemented with 300 mM NaCl. Effect of heparin on pro-heparanase spectra was determined at a concentration of 100 μM, and the inhibitor was added at a concentration of 15 μM. Base-line recordings were performed in the presence and absence of heparin to correct the pro-heparanase spectra.
(Circular dichroism is widely used to follow secondary structure.)

Where a chain is given by its changes, count along the chain named.

B1: H60 − heparin: purified 60 kDa pro-heparanase without heparin (protein)
chain: T1 sequence (Q9Y251 36-543 K307R)
Molecule B1 showed an Un-ordered of 0.33, an a helix of 0.29, a β strand of 0.26 and a β turn of 0.12.

B2: H60 + heparin: 60 kDa pro-heparanase in the presence of heparin (protein, UniProt Q9Y251 36-543, looked up)
pro-form: T1 sequence (Q9Y251 36-543 K307R) with R272K
modifications: pro-form with heparin
notes: 60 kDa pro-heparanase in the presence of heparin
The molecule B2 displayed an Un-ordered of 0.3, an a helix of 0.44, a β strand of 0.26 and a β turn of 0.
